US20220332804A1 (CSL INNOVATION, published 2022)

Columns and labels:
Assay in all cases: SPR; KD relative to WT C2;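 further: biacore SPR at 37 °C, anti-C2 mAbs captured on an anti-human IgG chip, alanine or serine C2 surface mutants tested, KD from 1:1 fit compared with wild-type C2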
human C2 G432A = biological target: T1, human C2 G432A (human, UniProt P06681 21-752)
T1 sequence: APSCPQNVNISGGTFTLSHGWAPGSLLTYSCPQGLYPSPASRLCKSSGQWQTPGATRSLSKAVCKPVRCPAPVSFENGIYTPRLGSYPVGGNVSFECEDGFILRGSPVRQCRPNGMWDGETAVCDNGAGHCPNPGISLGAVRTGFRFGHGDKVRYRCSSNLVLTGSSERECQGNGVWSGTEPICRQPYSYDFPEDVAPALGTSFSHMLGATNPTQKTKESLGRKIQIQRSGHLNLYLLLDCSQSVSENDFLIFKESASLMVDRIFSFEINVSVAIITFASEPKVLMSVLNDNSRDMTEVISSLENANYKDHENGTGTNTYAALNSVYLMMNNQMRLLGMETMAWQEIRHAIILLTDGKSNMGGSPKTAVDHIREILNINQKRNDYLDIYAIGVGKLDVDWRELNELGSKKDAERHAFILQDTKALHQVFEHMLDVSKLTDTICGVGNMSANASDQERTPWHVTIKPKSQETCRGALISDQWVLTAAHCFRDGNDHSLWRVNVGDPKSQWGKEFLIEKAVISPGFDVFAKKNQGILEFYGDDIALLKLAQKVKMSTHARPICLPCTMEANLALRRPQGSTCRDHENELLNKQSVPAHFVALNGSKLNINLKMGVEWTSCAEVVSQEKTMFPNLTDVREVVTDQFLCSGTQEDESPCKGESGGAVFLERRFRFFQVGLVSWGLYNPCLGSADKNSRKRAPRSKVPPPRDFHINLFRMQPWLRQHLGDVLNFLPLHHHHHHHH

human C2 F689A = biological target: T2, human C2 F689A (human, UniProt P06681 21-752)
T2 sequence: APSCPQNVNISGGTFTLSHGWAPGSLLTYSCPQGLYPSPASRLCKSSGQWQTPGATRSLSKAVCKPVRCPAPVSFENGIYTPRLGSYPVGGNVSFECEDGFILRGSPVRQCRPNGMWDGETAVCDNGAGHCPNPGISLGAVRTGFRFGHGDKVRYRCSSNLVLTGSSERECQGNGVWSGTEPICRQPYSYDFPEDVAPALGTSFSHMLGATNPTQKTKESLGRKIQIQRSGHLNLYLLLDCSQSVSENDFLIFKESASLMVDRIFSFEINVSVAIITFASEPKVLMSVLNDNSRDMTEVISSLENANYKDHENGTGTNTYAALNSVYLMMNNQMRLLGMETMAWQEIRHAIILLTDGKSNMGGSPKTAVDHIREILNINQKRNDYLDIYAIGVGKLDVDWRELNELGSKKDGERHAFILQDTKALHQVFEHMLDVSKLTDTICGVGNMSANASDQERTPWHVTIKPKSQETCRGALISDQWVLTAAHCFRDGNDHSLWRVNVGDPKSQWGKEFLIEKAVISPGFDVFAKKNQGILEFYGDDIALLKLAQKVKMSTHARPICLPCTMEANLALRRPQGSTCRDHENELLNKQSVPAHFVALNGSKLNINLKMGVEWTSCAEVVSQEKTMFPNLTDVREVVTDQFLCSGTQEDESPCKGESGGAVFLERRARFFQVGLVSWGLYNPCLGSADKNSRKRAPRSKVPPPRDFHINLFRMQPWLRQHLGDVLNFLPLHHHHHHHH

human C2 N380A = biological target: T3, human C2 N380A (human, UniProt P06681 21-752)
T3 sequence: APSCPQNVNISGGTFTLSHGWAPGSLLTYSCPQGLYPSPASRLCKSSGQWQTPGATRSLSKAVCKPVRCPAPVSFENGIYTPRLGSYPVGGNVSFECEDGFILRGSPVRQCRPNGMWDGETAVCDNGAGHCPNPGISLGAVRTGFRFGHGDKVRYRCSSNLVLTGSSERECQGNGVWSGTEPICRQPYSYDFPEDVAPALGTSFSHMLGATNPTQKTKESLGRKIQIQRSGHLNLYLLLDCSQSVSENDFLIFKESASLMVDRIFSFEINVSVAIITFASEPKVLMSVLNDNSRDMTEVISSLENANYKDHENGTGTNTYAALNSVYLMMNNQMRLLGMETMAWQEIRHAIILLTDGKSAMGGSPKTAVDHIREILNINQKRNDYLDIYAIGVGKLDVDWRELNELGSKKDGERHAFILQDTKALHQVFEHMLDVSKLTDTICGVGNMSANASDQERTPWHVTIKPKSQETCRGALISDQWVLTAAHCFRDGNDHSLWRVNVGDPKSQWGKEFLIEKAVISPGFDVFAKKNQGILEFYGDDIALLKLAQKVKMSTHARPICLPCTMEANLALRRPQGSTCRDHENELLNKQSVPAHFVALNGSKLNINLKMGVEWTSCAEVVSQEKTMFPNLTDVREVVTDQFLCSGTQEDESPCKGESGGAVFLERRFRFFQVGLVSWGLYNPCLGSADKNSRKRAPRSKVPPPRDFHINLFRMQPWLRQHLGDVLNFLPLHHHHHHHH

human C2 V455A = biological target: T4, human C2 V455A (human, UniProt P06681 21-752)
T4 sequence: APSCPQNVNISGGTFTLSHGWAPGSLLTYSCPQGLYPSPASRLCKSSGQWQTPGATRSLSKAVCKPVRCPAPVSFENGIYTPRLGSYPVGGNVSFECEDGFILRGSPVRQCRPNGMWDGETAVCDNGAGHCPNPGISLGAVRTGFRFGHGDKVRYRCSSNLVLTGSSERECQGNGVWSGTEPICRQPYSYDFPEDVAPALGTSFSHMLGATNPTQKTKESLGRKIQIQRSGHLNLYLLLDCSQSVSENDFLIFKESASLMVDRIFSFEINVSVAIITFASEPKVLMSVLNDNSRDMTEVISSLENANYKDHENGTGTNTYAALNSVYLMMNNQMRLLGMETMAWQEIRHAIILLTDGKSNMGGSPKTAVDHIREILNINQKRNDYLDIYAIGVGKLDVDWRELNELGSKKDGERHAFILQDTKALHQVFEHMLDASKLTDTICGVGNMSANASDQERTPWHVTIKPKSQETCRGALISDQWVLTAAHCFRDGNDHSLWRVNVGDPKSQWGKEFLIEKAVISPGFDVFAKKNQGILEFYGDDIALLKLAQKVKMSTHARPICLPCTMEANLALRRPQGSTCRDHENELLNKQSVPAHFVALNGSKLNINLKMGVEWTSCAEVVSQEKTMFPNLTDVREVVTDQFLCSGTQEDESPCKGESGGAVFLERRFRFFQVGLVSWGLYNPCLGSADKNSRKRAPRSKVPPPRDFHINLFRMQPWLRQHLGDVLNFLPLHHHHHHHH

Fold diff (human C2 G432A): 1 fold | Fold diff (human C2 F689A): 1 fold | Fold diff (human C2 N380A): 2 fold | Fold diff (human C2 V455A): 0 fold
B1: RF16-214 (antibody, V domains shown)
VH: EVQLLESGGGLVQPGGSLRLSCAASGFTFSWYQMMWVRQAPGKGLEWVSRIYPSGGGTAYADSVKGRFTISRDNSKNTLYLQMNSLRAEDTAVYYCARDAGYGDNWGQGTLVTVSS
VL: QSALTQPPSVSVSPGQTASITCSGDKLGEKYASWYQQKAGQSPVMVIYQDRKRPSGIPERFSGSNSGNTATLTISGTQAMDEADYYCQAWDTRAVVFGGGTKLTVLG
